From paper PMC6272300, “Characterization of a (2R,3R)-2,3-Butanediol Dehydrogenase from Rhodococcus erythropolis WZ010” (Molecules, 2015)

What was measured:
Experiment in all cases: purified protein
purified protein [1] = substrate: NC(=O)C1=CN([C@@H]2O[C@H](COP(=O)(O)OP(=O)(O)OC[C@H]3O[C@@H](n4cnc5c(N)ncnc54)[C@H](O)[C@@H]3O)[C@@H](O)[C@H]2O)C=CC1; format: biochemical, Rhodococcus erythropolis; conditions: reduction; 50 mM diacetyl; 50 mM PIPES pH 6.5, 55 °C; pH 6.5; 55.0 °C; varied: cofactor
purified protein [2] = substrate: NC(=O)c1ccc[n+]([C@@H]2O[C@H](COP(=O)(O)OP(=O)(O)OC[C@H]3O[C@@H](n4cnc5c(N)ncnc54)[C@H](O)[C@@H]3O)[C@@H](O)[C@H]2O)c1; format: biochemical, Rhodococcus erythropolis; conditions: oxidation; 50 mM (2R,3R)-2,3-butanediol; 50 mM CAPS pH 10.0, 45 °C; pH 10.0; 45.0 °C; varied: cofactor
purified protein [3] = substrate: CC(=O)C(C)=O; format: biochemical, Rhodococcus erythropolis; conditions: reduction; 0.4 mM NADH; 50 mM PIPES pH 6.5, 55 °C (swapped); pH 6.5; 55.0 °C
purified protein [4] = substrate: C[C@@H](O)[C@@H](C)O; conditions: oxidation, 0.64 mM NAD+, 50 mM CAPS pH 10.0, 45 °C (b26 prints the pH and temperature of the two directions swapped)

B1: ReBDH (Rhodococcus erythropolis PR4) (protein)
chain: MKAARFHGQKDIRIEEIPEPELRPGTVKLKVAWCGICGTDLHEYLEGPIFISAPGHPHPLSHENAPVTMGHEFSGTVEEVGEGVTDVEVGENVVVEPYFVCNECAPCKAGNYHLCTKMGFIGLAGGGGGLSEKVVVDRRWIHKIGNIPLDEAALIEPLSVAHHAVVRSGAESGNVAIVGGAGPIGLLVAAVLKGLGVTTIVTELSEARKAKALSSGVADYVIDPTTEDVKARVLELSGGIGADIGFECAGVNAVLDTMLDTVRPAGVVVNVSIWGKPATIDMQKLVLKEIDLRGTIAYVRDHEAVIKMVQDGVVDLAPFITGRIQLEELISEGFTTLIEHNDTAVKILVRS
notes: full length, 351 residues, deduced 37180 Da; N-terminal His-tag (pEASY-E1) kept, E. coli BL21(DE3), Ni-NTA; native 45 kDa monomer
Purified protein [1]
  Km: 80 ± 10 µM
  Vmax: 8.92 µmol/min/mg
  kcat: 5.73 ± 0.08 s⁻¹
  kcat/Km: 71600 ± 10100 M⁻¹ s⁻¹
Purified protein [2]
  Km: 1040 ± 110 µM
  Vmax: 16 µmol/min/mg
  kcat: 10.3 ± 0.69 s⁻¹
  kcat/Km: 9880 ± 1780 M⁻¹ s⁻¹
Purified protein [3]
  Km: 100 ± 10 µM
  Vmax: 9.49 µmol/min/mg
  kcat: 6.11 ± 0.14 s⁻¹
  kcat/Km: 61100 ± 7650 M⁻¹ s⁻¹
Purified protein [4]
  Km: 580 ± 50 µM
  Vmax: 6.65 µmol/min/mg
  kcat: 4.28 s⁻¹
  kcat/Km: 7380 M⁻¹ s⁻¹
